The supplement of paper PMC10567573

B1: PBXIP1 (parent)
chain: LPVETLGPASRMDPESERALQAPH
B2: MYOZ1 (parent)
chain: FSDSSMDHFQKFLPTVGGQLGTAG

Variants of: B1
Experiment: protein stability index of a GFP-peptide fusion (GPS, HEK-293T) (PSI 1-6); higher = more stable
Conditions: c terminus: a fixed tail appended
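Also: lentivirally expressed fusions sorted by FACS into six bins by GFP to DsRed ratio, PSI derived from sequencing read proportions per bin multiplied by bin number.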

Protein stability index: each site, then its substitutions
P23: W 3.92 | R 4.66 | T 4.57 | Y 3.99 | S 4.78 | V 3.92
H24: L 3.94 | E 4.36 | P 4.03 | C 4.05 | Q 4.31 | R 4.16 | W 4.07 | T 4.59 | Y 4.07 | F 4.21 | N 4.61 | M 4.23 | A 4.44 | I 3.72 | D 4.75 | K 4.5 | V 4.47 | G 4.26 | S 4.75

Variants of: B2
Experiment: as above
Conditions: c terminus: a fixed tail appended

Protein stability index, by site and new letter:
F9: C 2.92 | A 2.71 | S 3.61 | K 3.09 | L 2.16 | R 2.6 | Q 3.88 | E 4.4 | W 1.89 | Y 2.78 | M 3.37 | T 2.48 | H 2.57 | G 4.56 | V 3.71 | N 3.84 | P 4.38 | I 2.46 | D 4.52
S4: K 2.12 | Y 1.61 | W 2.89 | I 3.59 | N 2.32 | R 2.51 | T 2.65 | G 2.15 | P 2.42 | M 1.79 | D 2.15 | E 2.94 | H 2.35 | F 2.87 | C 1.43 | A 2.09 | V 3.14 | Q 1.92
G18: P 2.43 | N 2.67 | C 2.04 | Q 2.63 | F 1.51 | I 1.52 | E 3.48 | K 2 | R 2.79 | M 2.49 | L 2.3 | A 1.92 | D 3.05 | H 2.04
S2: R 1.94 | E 2.81 | N 2.23 | Y 1.83 | D 2.95 | H 1.5 | Q 2.59 | I 1.92 | C 1.5 | A 1.77 | M 2.63 | P 2.54 | G 2.9 | L 3.52 | F 1.62
M6: G 2.86 | N 2.78 | V 2.23 | L 2.29 | F 3.55 | A 2.65 | S 2.26 | C 1.96 | K 3.08 | W 1.44 | D 3.22 | Y 2.32 | Q 3 | E 3 | P 2.56 | H 2.25 | I 2.04 | T 2.58 | R 2.66
F1: S 4.12 | T 3.51 | P 3.6 | A 3.62 | R 3.41 | E 3.38 | V 3.56 | G 2.41 | K 3.77 | Y 2.83 | I 2.92 | N 3.23 | C 2.26 | L 3.11 | W 2.56 | H 3.88 | M 3.7
V16: C 2.38 | L 2.28 | A 3.19 | Q 3.19 | E 4.23 | Y 1.92 | P 2.56 | R 2.46 | M 2.46 | I 2.13 | T 3.09 | H 2.75 | N 2.26 | F 2.75 | S 2.94 | W 2.44 | G 2.98 | D 2.85 | K 2.64
L13: P 3.06 | A 2.52 | E 4.42 | Q 3.18 | M 3.29 | N 3.1 | R 2.92 | F 3.09 | D 3.44 | T 3.53 | W 1.82 | G 3.44 | K 3.53 | S 2.76 | H 3.29 | C 2.75 | I 1.9 | V 2.97 | Y 2.76
Q10: V 1.77 | I 2.91 | S 2.07 | R 1.13 | E 1.95 | N 2.42 | F 2.3 | P 3.23 | D 3.15 | G 2.57 | C 2.06 | M 2.02 | L 1.3 | H 2.31 | K 2.14 | T 2.15 | A 2.33 | Y 1.47
H8: V 1.76 | P 2.36 | R 1.61 | Q 2.58 | E 2.34 | W 2.22 | D 2.49 | I 2.21 | T 2.51 | K 2.15 | A 1.84 | Y 2.08 | N 2.48 | G 2.07 | C 1.72 | S 1.53 | F 1.38 | L 1.35
T15: Q 2.94 | M 1.85 | W 1.33 | V 2.66 | H 2.69 | L 1.9 | F 2.13 | D 2.61 | Y 1.93 | K 2.64 | G 2.46 | A 2.64 | C 2.33 | P 2.51 | N 1.7 | S 2.93 | I 2.43 | R 2.08 | E 2.5
S5: E 2.91 | G 1.88 | N 3.11 | D 2.58 | F 2.22 | C 2.19 | M 1.82 | Q 2.19 | K 2.07 | R 1.05 | W 2.38 | H 2.25 | T 2.98 | L 3.12 | A 3.02 | P 2.08
G17: K 2.02 | L 1.56 | N 2.98 | Y 2.26 | I 2.47 | T 2.56 | D 2.33 | C 1.97 | R 1.92 | P 2.59 | V 2.38 | A 2.48 | E 2.98 | M 2.06 | S 2.26 | H 2.47 | Q 2.53 | W 2.03 | F 1.85
D3: P 1.56 | A 1.96 | K 1.63 | F 1.94 | V 1.96 | E 3.06 | W 2.06 | H 1.88 | I 1.89 | Q 2.27 | N 1.67 | Y 2.02 | S 1.97 | T 1.96 | R 1.49 | L 1.55 | M 1.45
F12: K 3.67 | C 2.92 | Q 3.04 | I 2.08 | W 1.85 | E 4.6 | T 3.16 | P 3.61 | S 3.67 | R 3.5 | D 4.08 | L 2.88 | G 3.15 | A 3.98 | M 3.11 | Y 2.77 | N 3.68 | H 3.28
K11: Q 2.66 | S 2.37 | W 1.02 | A 1.79 | M 1.34 | G 3.21 | E 3.51 | P 2.46 | R 2.12 | F 2.07 | Y 2.15 | N 2.56 | H 2.38 | L 1.67 | D 3.32 | T 2.45 | I 2.12 | C 1.8
D7: P 2.38 | K 1.8 | Q 2.02 | L 1.55 | C 1.9 | H 1.82 | S 2.56 | A 1.38 | I 2.3 | V 2.15 | T 2.15 | E 2.02 | R 2.6 | G 1.44 | M 1.38
P14: D 1.61 | N 1.47 | V 3.62 | T 2.25 | C 1.41 | M 2.68 | L 4.1 | Q 2.38 | G 1.58 | F 2.83 | R 1.44
